The Kd is the equilibrium constant for the complex coming apart. Lower therefore signals higher affinity.

Like-named read-outs stand apart in the source and are kept apart here.

Series [1] has as its target T1, A3Gctd-2K3A-E259A (UniProt Q9HC16 191-384, L234K;C243A;E259A;F310K;C321A;C356A). Put plainly: MST.
In series [2] the target is T1, A3Gctd-2K3A-E259A. Put plainly: MST. This is another data set of the same source.

T1 sequence (Q9HC16 191-384 L234K/C243A/E259A/F310K/C321A/C356A): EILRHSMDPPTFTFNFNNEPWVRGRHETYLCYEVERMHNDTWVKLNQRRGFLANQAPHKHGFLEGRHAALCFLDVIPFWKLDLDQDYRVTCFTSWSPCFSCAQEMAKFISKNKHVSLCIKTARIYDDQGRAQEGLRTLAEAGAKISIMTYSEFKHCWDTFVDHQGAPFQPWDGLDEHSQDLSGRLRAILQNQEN

B1: 5'-ATTCC(2'-F-ANA)CAATT (XNA)
DNA: ATTCCCAATT
modifications: 2'-deoxy-2'-fluoroarabinocytidine at position 6, rest DNA
As to B1, the Kd with A3Gctd-2K3A-E259A [1] came to 1740 ± 490 µM.

B2: 5'-AATCCrCAAA (ssDNA)
DNA: AATCCCAAA
modifications: ribocytidine at position 6, rest DNA
For B2, the Kd with A3Gctd-2K3A-E259A [2] stood at 6650 ± 860 µM.

B3: 5'-AATCCCAAA (substrate) (ssDNA)
DNA: AATCCCAAA
B3 registered a Kd in the series with A3Gctd-2K3A-E259A [2] of 1570 ± 160 µM.

B4: 5'-AATCCdUAAA (intermediate product) (ssDNA)
DNA: AATCCUAAA
modifications: deoxyuridine at position 6
In turn, B4 showed a Kd with A3Gctd-2K3A-E259A [2] of 2170 ± 250 µM.

B5: 5'-ATTCC(2'-F-RNA)CAATT (XNA)
DNA: ATTCCCAATT
modifications: 2'-deoxy-2'-fluororibocytidine at position 6, rest DNA
In the series with A3Gctd-2K3A-E259A [2], B5 had a Kd of 3760 ± 300 µM. This Kd lies about 1.7-fold higher than the previous one.

The values above are taken from article PMC6698744.
